Measured values as given in US20240270831A1.

Assays:
[1] = molecular target: purchased CTNI antigen (UniProt P19429); test: fluorescent chromatography card, sandwich; coated on T line; 3 ng/ml
[2] = molecular target: purchased CTNI antigen (UniProt P19429); test: fluorescent chromatography card, sandwich; coated on T line; 0 ng/ml (blank, no antigen)
[3] = molecular target: purchased CTNI antigen (UniProt P19429); test: fluorescent chromatography card, sandwich; coated on T line; 0.04 ng/ml
[4] = molecular target: purchased CTNI antigen (UniProt P19429); test: fluorescent chromatography card, sandwich; coated on T line; 0.15 ng/ml
[5] = molecular target: purchased CTNI antigen (UniProt P19429); test: fluorescent chromatography card, sandwich; coated on T line; 0.08 ng/ml
[6] = molecular target: purchased CTNI antigen (UniProt P19429); test: fluorescent chromatography card, sandwich; coated on T line; 10.5 ng/ml
[7] = molecular target: purchased CTNI antigen (UniProt P19429); test: fluorescent chromatography card, sandwich; coated on T line, other CTNI antibody on fluorescent microspheres; 50 ng/ml
[8] = molecular target: purchased CTNI antigen (UniProt P19429); test: fluorescent chromatography card, sandwich; coated on T line; 0.7 ng/ml
[9] = molecular target: purchased CTNI antigen (UniProt P19429); test: fluorescent chromatography card, sandwich; coated on T line; 18 ng/ml

UniProt P19429, sequence (P19429 2-210 limits assumed): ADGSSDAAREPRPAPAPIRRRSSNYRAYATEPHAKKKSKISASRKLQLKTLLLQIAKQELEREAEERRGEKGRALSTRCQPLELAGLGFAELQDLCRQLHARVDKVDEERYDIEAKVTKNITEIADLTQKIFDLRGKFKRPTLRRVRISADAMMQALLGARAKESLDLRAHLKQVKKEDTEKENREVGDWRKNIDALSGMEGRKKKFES

fluorescence reading (name not given) [1]: 0.18 | fluorescence reading (name not given) [2]: 0.015 | fluorescence reading (name not given) [3]: 0.017 | fluorescence reading (name not given) [4]: 0.026 | fluorescence reading (name not given) [5]: 0.02 | fluorescence reading (name not given) [6]: 0.45 | fluorescence reading (name not given) [7]: 2.17 | fluorescence reading (name not given) [8]: 0.045 | fluorescence reading (name not given) [9]: 0.746
B1: Anti-cTnI-21C5 monoclonal antibody (antibody, from another filing, V domains shown)
VH: EVQLQQSGPELVKPGASVKMSCKASGYSFTLYVVHWVKQKPGQGLEWIGYIQPYLDGTRYNEKFKGKATLTVDKSSSTAFMELSSLTSEDSAVYYCARTGYGGYGLAWLAYWGQGTLVTVSA
VL: QAVVIQESALTTSPGETVTLTCRSSSGAATTSQYANWVQEKPDHLFTGLIGGSNNRAPGVPARFSGSLIGDKAALTITGAQTEDEAIYFCAIVYSNHWVFGGGTKLTVLG
